Reference: CN101045751A (INST OF MICROBIAL EPIDEMIC ACA, dated 2007)

Target: T1, B型肉毒毒素抗原 (Clostridium Botulinum, UniProt P10844 2-1291)
T1 sequence: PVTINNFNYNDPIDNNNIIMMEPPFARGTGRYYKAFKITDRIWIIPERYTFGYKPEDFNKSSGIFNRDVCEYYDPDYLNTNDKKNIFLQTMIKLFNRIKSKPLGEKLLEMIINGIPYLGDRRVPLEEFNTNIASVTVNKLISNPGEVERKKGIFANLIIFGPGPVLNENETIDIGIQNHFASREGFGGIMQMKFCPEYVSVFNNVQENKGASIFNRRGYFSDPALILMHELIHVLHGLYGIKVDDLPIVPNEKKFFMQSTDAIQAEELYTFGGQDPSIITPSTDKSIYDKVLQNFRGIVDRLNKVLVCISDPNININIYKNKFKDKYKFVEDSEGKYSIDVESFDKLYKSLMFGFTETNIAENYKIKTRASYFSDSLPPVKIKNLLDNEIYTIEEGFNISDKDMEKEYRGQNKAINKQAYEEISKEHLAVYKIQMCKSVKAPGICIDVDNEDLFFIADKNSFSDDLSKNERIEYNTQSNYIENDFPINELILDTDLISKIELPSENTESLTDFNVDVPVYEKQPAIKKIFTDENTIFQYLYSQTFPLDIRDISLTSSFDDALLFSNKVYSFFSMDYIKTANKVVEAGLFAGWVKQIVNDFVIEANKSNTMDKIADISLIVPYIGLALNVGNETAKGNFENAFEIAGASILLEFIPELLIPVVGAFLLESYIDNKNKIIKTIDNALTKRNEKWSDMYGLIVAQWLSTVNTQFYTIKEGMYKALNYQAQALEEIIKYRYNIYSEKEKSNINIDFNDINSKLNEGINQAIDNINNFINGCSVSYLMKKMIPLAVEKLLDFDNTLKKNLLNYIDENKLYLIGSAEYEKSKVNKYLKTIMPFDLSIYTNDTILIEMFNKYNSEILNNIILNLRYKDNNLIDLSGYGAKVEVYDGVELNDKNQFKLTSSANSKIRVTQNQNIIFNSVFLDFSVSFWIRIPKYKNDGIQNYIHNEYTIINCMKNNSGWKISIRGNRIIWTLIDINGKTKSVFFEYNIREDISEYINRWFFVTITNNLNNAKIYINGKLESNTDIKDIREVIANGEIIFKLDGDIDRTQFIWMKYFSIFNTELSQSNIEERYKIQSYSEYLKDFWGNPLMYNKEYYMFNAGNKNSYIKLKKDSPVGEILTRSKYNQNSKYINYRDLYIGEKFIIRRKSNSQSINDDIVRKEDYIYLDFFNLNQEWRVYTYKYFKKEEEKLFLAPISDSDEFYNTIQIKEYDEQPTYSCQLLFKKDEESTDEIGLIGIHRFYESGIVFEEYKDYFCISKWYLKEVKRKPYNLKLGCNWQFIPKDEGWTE
Test: ELISA

B1: 人源抗A型肉毒神经毒素基因工程抗体 HuAb-BNa 单链抗体 (ScFv) (scFv)
scFv: QVQLQESGPGLVKPSETLSLTCTVSGGSISSGSYYWGWIRQPPGKGLEWIGSIYYSGSTYYNPSLKSRVTISVDTSKNQFSLMLSSVTAADTAVYYCARQGSSGYYQNWFDPWGQGTLVTVSSSGGGGSGGGGSGGGGDVVMTQSPGTLSLSPGERATLSCRASQSVSSSYLAWYQQKPGQAPRLLIYGASSRATGIPDRFSGSGSGTDFTLTISRPEPEDFAVYYCQQPGFTFGPGTKVEIKRTVAA
  binding result: no binding
